Assay results reported in patent US11472839B2, “Peptide capable of forming a gel for use in tissue engineering and bioprinting” (KING ABDULLAH UNIVERSITY OF SCIENCE AND TECHNOLOGY, priority 2017, dated 2022).
Non-standard residues stand in square brackets, D forms with d. Cha = N[C@@H](CC1CCCCC1)C(=O)O

Tests used:
[1] = Peptide hydrogel preparation / self-assembly (gelation); type: physicochemical; conditions: FIG. 1A
Experimental: Lyophilized peptides were dissolved in milliQ water and vortexed to get a homogenous solution. Subsequently, 10× phosphate buffered saline at the final concentration of 1× was added to the peptide solution and vortexed shortly. Gelation occurred within few seconds to minutes or hours depending on the peptide sequence.

[2] = Transmission electron microscopy (TEM) of peptide nanofibers; type: physicochemical; conditions: TEM images (13 for IVFK, 10 for IVZK), distribution curve; IVZK shows three types of average diameter, 8.6 nm most abundant, 4.0 nm single monomer fiber
Experimental: The TEM studies were carried out on two different instruments; Tecnai G2 Spirit Twin with accelerating voltage of 120 kV and FEI Titan G2 80-300 CT with 300 kV emission gun. The Cryo TEM imaging was performed in low dose mode by using FEI's Titan Krios operating at 300 kV. The TEM samples for peptide nanofiber were prepared from diluted peptide hydrogel in water. One drop of this solution was then introduced on a carbon coated copper grid that has been treated with glow discharge plasma before being used. The drop was then kept for 10 minutes before being blotted using filter paper. To get a better contrast, the grid was stained using 2% uranyl acetate for 1 minute and then was dried for at least one day before imaging. The diameter of IVFK and IVZK peptide nanofibers were measured using an image-analysis software ImageJ from 13 and 10 TEM images, respectively. A size distribution histogram for each peptide nanofiber was created in Origin to calculate the average diameter of both peptides. See e.g. FIG. 1B.

## Ac-IVOK-NH2 (Ac-IV[Cha]K-NH2; SMILES CC[C@H](C)[C@H](NC(C)=O)C(=O)N[C@H](C(=O)N[C@@H](CC1CCCCC1)C(=O)N[C@@H](CCCCN)C(N)=O)C(C)C) [IVZK, ultrashort self-assembling peptide; Z undefined, probably cyclohexylalanine]
[1]
  self-assembly into hydrogel: self-assemble into macromolecular nanofibrous hydrogels

## Ac-IVFK-NH2
[1]
  self-assembly into hydrogel: self-assemble into macromolecular nanofibrous hydrogels
[2]
  average fiber diameter: 10.3 nm
